Results taken from paper PMC5797543.
One block for each binder: values may come before it.

How the values were obtained:
[1] = target: recombinant HLA-B*15:01 (heavy chain with human β2-microglobulin light chain) (human)
[2] = target: recombinant HLA-A*01:01 (heavy chain with human β2-microglobulin light chain) (human)

melting temperature (Tm) of the purified p/MHC complex, differential scanning fluorimetry [1]: 59.3 °C
thermal stability (Tm) of the purified p/MHC complex, differential scanning fluorimetry [2]: 47.9 °C
B1: ALK R1275Q-derived decamer neoepitope (…) (peptide)
peptide: AQDIYRASYY

melting temperature (Tm) of the purified p/MHC complex, differential scanning fluorimetry [1]: 53.4 °C
thermal stability (Tm) of the purified p/MHC complex, differential scanning fluorimetry [2]: 46.7 °C
B2: ALK R1275Q-derived nonamer neoepitope (…) (peptide)
peptide: AQDIYRASY
